From paper PMC10716038, “Talin and kindlin use integrin tail allostery and direct binding to activate integrins” (Nature Structural & Molecular Biology, 2023)

B1: talin-1 head domain (THD1) [not stated] / ATTO 488-labelled β3-CT (488–β3-CT) [modified: ATTO 488 at the N terminus; ATTO 488 at the N terminus] [not stated] (parent)
chain 1: MVALSLKISIGNVVKTMQFEPSTMVYDACRMIRERIPEALAGPPNDFGLFLSDDDPKKGIWLEAGKALDYYMLRNGDTMEYRKKQRPLKIRMLDGTVKTIMVDDSKTVTDMLMTICARIGITNHDEYSLVRELMEEKKDEGTGTLRKDKTLLRDEKKMEKLKQKLHTDDELNWLDHGRTLREQGVEEHETLLLRRKFFYSDQNVDSRDPVQLNLLYVQARDDILNGSHPVSFDKACEFAGFQCQIQFGPHNEQKHKAGFLDLKDFLPKEYVKQKGERKIFQAHKNCGQMSEIEAKVRYVKLARSLKTYGVSFFLVKEKMKGKNKLVPRLLGITKECVMRVDEKTKEVIQEWSLTNIKRWAASPKSFTLDFGDYQDGYYSVQTTEGEQIAQLIAGYIDIILKKKKS
chain 2: KLLITIHDRKEFAKFEEERARAKWDTANNPLYKEATSTFTNITYRGT

Variants of: B1
Experiment: MST
Details: with ATTO 488-labelled β3-CT (488–β3-CT) [modified: ATTO 488 at the N terminus, 30-40 µM KIND2, n = 2, read off a plot

| Variant | screen value |
| --- | --- |
| chain 1 I398A | 0.65 |
| chain 1 K402A | 0.45 |
| chain 1 K402A K403A | 0.7 |
| chain 1 K403A | 0.5 |
| chain 1 I396A | 1 |
| chain 1 I399A | 0.93 |
| chain 1 K401A | 0.55 |

More lines, now with the values ahead:

| screen value | Variant |
| --- | --- |
| 1.1 | chain 1 L400A |
| 0.68 | chain 1 Y395A |
| 0.75 | chain 1 K404A |
| 0.57 | chain 1 K403E |
